# Source: FireProtDB (doi:10.1006/jmbi.2001.4956)
# B1: Guanyl-specific ribonuclease Sa3, P30289 (parent)
# chain: MRIPPRLVALAGAAAVAATLIAGPVAAAAPASHAVAASSAASASVKAVGRVCYSALPSQAHDTLDLIDEGGPFPYSQDGVVFQNREGLLPAHSTGYYHEYTVITPGSPTRGARRIITGQQWQEDYYTADHYASFRRVDFAC
# B2: Guanyl-specific ribonuclease Sa, P05798 (parent)
# chain: DVSGTVCLSALPPEATDTLNLIASDGPFPYSQDGVVFQNRESVLPTQSYGYYHEYTVITPGARTRGTRRIITGEATQEDYYTGDHYATFSLIDQTC
# Variants of: B1
# Details: Kitasatospora aureofaciens; pH 7; 25 °C; Thermal; CD; MOPS 30 mM; reversible: yes(>95 %); structure 1MGR; whole UniProt chain shown
row,Variant,ddG of mutation (higher = less stable) [kJ/mol]
1,Y125F,6.28
2,Y131F,0
3,Y126F,4.18
4,Y97F,8.79
5,Y75F,-2.09
6,Y100F,2.93

# Variants of: B2
# Details: Kitasatospora aureofaciens; pH 7; 25 °C; Thermal; CD; MOPS 30 mM; reversible: yes(>95 %); structure 1RGG; whole UniProt chain shown
row,Variant,ddG of mutation (higher = less stable) [kJ/mol]
1,Y80F,6.28
2,Y52F,15.1
3,Y30F,-1.67
4,Y86F,1.26
5,Y55F,2.51
6,Y49F,0.837
7,Y81F,5.02
